The values that follow come from article PMC5491494.

This assay has as its target hnRNPA1, endogenous, P09651. The assay is described as follows: cross-linking; DSG cross-linking, sample not named in the text (Supplementary Fig. 2a); nucleo-cytoplasmic fractionation; immunoblot, 4–12% denaturing polyacrylamide gels. To be noted: remark: other sources report otherwise.

B1: hnRNPA1, endogenous, P09651 1-372 (natural protein)
chain: MSKSESPKEPEQLRKLFIGGLSFETTDESLRSHFEQWGTLTDCVVMRDPNTKRSRGFGFVTYATVEEVDAAMNARPHKVDGRVVEPKRAVSREDSQRPGAHLTVKKIFVGGIKEDTEEHHLRDYFEQYGKIEVIEIMTDRGSGKKRGFAFVTFDDHDSVDKIVIQKYHTVNGHNCEVRKALSKQEMASASSSQRGRSGSGNFGGGRGGGFGGNDNFGRGGNFSGRGGFGGSRGGGGYGGSGDGYNGFGNDGGYGGGGPGYSGGSRGYGSGGQGYGNQGSGYGGSGSYDSYNNGGGGGFGGGSGSNFGGGGSYNDFGNYNNQSSNFGPMKGGNFGGRSSGPYGGGGQYFAKPRNQGGYGGSSSSSSYGSGRRF
B1: the stoichiometry N turned out to be 2.
